Measured values reported in the supplement of paper PMC9170038.

Test system: MS2 coat protein
Test: apparent KD of MS2 coat protein; designed switch direction (-1 OFF switch, 1 ON switch): -1; higher = weaker reporter binding
How it was run: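 Designed RNA switches with common flanks were made on Illumina chips by stalled E. coli RNA polymerase. Titration with SNAP-549-labelled MS2 coat protein doubled from 0.7 or 1.5 nM up to 3 µM. Apparent KD is each design's median over clusters after curve-fitting normalised fluorescence.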

[1] = input ligand: microRNA oligo, concentration not stated
[2] = Eterna round: R95, input ligand: microRNA oligo, concentration not stated
[3] = Eterna round: R95, input ligand: FMN 200 uM
[4] = Eterna round: R95, input ligand: none

Sequence	apparent KD of MS2 coat protein (input ligand: FMN 200 uM) [µM]	apparent KD of MS2 coat protein (input ligand: none) [µM]	apparent KD of MS2 coat protein [2] [µM]	further results
CGCUAGUCAGGAUAUACGAACAUGUCAAAAGACGUGAAGGGACAUGAGGAUCACCCAUGUAGAAGGGACUAGCG [Mat - Exclusion 2 - JL mod - D4] (Eterna round: R96, puzzle: Exclusion 2)	0.256	0.0322	–	apparent KD of MS2 coat protein [1]: 0.0213 µM
AACCUGAGGCAAAGCUUUAGGUGUACAUGAGGAUCACCCAUGUAGGAUAUGGUAGGCUUUGCUUACCAGAAGGACAUUGGCGUA [Mat - Exclusion NG 3 - Mod of JL - D42] (Eterna round: R96, puzzle: Exclusion NG 3)	0.345	0.0917	–	apparent KD of MS2 coat protein [1]: 0.0705 µM
UACUUGUUAGGAUAUCUUACAUUUGCAUCAUAGCAACUAUUGGAGAAGGGACAUGAGGAUCACCCAUGUUUGGU [tap-tap-tappy13] (Eterna round: R97, puzzle: Exclusion 4)	0.0484	0.0419	–	–
AAAGAACUAGGAUAUACAUGAGGAUCACCCAUGUGCAGCUUAACGGCUCACACCUUAUGUAGAAGGAGUGACCG [Riorenar] (puzzle: Exclusion 3)	–	–	0.016	–
CCGCCGCAAGGAUAUACUUGCGGUGGUGUUCGAGUUCUUUUACUUGAGGAUCACCCAAGUAGAAGGUGCAAAAC [jl-ex2.4.55 ViennaUCT mod] (Eterna round: R97, puzzle: Exclusion 2)	0.0119	0.0115	–	–
ACGAUGUUUGGAGGAUAUACAUGAGGAUCACCCAUGUGCGACCGAGUCCGCACUUCACCUCAGUGGUAGAAGGCCGAACAUCGA [Eternabot solution 12] (Eterna round: R96, puzzle: Exclusion NG 2)	0.0979	0.255	–	apparent KD of MS2 coat protein [1]: 0.545 µM
AGCGAGGUAGGAUAUACAUGAGGAUCACCCAUGUGCUUGCAUGGCGUGGAACGUCGAGGUAGAAGGGCCAUGCC [EX3 #73] (Eterna round: R97, puzzle: Exclusion 3)	0.0245	0.0278	–	–
AGAAACAGAGGAUAUCGCGGACAGCACAUGAGGAUCACCCAUGUGAUGCUCCGCGGGCCGCGAGAAGGCUGAAAUG [Rateatge] (puzzle: Exclusion 5)	–	–	0.0122	apparent KD of MS2 coat protein [3]: 0.0293 µM; apparent KD of MS2 coat protein [4]: 0.0141 µM
ACGCGUUUAGGAUAUACGUGCCUUGACAGUCCUAUUGUGUUACAUGAGGAUCACCCAUGUAGAAGGAGGCCGCG [Eternabot (L1) Solution 79] (Eterna round: R97, puzzle: Exclusion 2)	0.0194	0.0202	–	–
AAGGACAGAGGAUAUACAUAGAUACAGAUUCAUGUAGAACUACAUGAGGAUCACCCAUGUAGAAGGCUGUCCUA [Fiskers Ex 2 - 2] (puzzle: Exclusion 2)	–	–	0.0294	–
UUGAAGUCGUCAGGAUAUAGUUUUAAUGUCAUGCGUAUGUUCUUACAUGAGGAUCACCCAUGUCGCUAGAAGGGACUAUAGAUU [JR_ExcNG2_Sub009] (Eterna round: R96, puzzle: Exclusion NG 2)	0.0533	0.0516	–	apparent KD of MS2 coat protein [1]: 0.0364 µM
AUAGUAUUGCAAGGAUAUCGAUUUAGUUUGUUUCGAGAAGGUGCUUUAGUUUAUACCUCUUGUUUACAUGAGGAUCACCCAUGU [JR_ExcNG1_Sub049] (Eterna round: R96, puzzle: Exclusion NG 1)	0.0185	0.0275	–	apparent KD of MS2 coat protein [1]: 0.0192 µM
GGUCCACAUGAGGAUCACCCAUGUUAGGAUAUCUCGCCCGAGUCGUUAUGGGCCAGGCAGAGAAGGAAUGUGAA [Cebeisve] (puzzle: Exclusion 1)	–	–	0.018	–
UGUGUGUGAGGAUAUACAAUGGGCCCGGGAAACCGGGCCCUACAUGAGGAUCACCCAUGUAGAAGGCGCGCGCG [-39.6, -37.5 kcal A 24%, 0,6bis] (Eterna round: R97, puzzle: Exclusion 2)	0.0472	0.0736	–	–
UAAUAGUAUGUUAGGAUAUGCUGGUCCUUGGAUCAGCAGAAGGAACAUGAGGAUCACCCAUGUAGAAUAUUUUA [Mod of JL 18 - Jieux - Brourd's mod of Exclusion 4] (Eterna round: R97, puzzle: Brourd's mod of Exclusion 4)	0.0568	0.0181	–	–
CUCUUGGCAGGAUAUGCAAUUUUAGACAUGAGGAUCACCCAUGUGAUCAUUCCAUAUUAUGCAGAAGGGCCUAAAC [JR_E5_Sub049] (Eterna round: R96, puzzle: Exclusion 5)	0.238	0.0392	–	apparent KD of MS2 coat protein [1]: 0.0274 µM
AAACGACAUGAGGAUCACCCAUGUGGCCCUUAGACUCGUAUCGAGGAUAUCCAGGGCCGGGCCGUGGAGAAGGCGAAUUAAAAU [Cetele] (Eterna round: R96, puzzle: Exclusion NG 3)	0.0638	0.0436	–	apparent KD of MS2 coat protein [1]: 0.0288 µM
GUCAUGUAAGGAUAUCUUACAUGUGACUUCGGUCACUGUCGAGAGAAGGUACAUGAGGAUCACCCAUGUUCGAC [Ex4-3: 53] (puzzle: Exclusion 4)	–	–	0.0156	–

Sequence	apparent KD of MS2 coat protein (input ligand: FMN 200 uM) [µM]	apparent KD of MS2 coat protein (input ligand: none) [µM]	apparent KD of MS2 coat protein [2] [µM]	further results
AAUAAGUGAGGAUAUACGUCUGGACCCGGGAGGGCUAUAUAACAUGAGGAUCACCCAUGUAGAAGGCACAAUAA [Excls2-IV] (puzzle: Exclusion 2)	–	–	0.0162	–
UCUGCCGCCGUGAGGAUAUGCCCGCGCAAACGCGGGCAGAAGGCACAUGAGGAUCACCCAUGUCCCGCGGUUUU [salish99_bmx4_r4_133] (Eterna round: R97, puzzle: Brourd's mod of Exclusion 4)	0.0387	0.0183	–	–
UUUAAGGUAAUUAAGAUCACAUGAGGAUCACCCAUGUAUAUAUAGGAUAUCAGCUCGUGUAGAGCUGAGAAGGAUAUAUACAUA [ExNG3/6-C3] (Eterna round: R96, puzzle: Exclusion NG 3)	0.0249	0.542	–	apparent KD of MS2 coat protein [1]: 0.0483 µM
GCUAGGAAUGUCAGGAUAUGCUGUUCCUUGGAACAGCAGAAGGGACAUGAGGAUCACCCAUGUGCUAACCUAGC [Mat - Exclusion 4 - JL Mod - D5] (Eterna round: R97, puzzle: Brourd's mod of Exclusion 4)	0.0992	0.0244	–	–
GCAGAUCAAGUGAGGAUAUGCUCUACCUCGGUAGAGCAGAAGGCACAUGAGGAUCACCCAUGUGAUUGAUCUGC [Omei Ex4B B5] (Eterna round: R97, puzzle: Brourd's mod of Exclusion 4)	0.0269	0.0195	–	–
UUCCACGAUGUCAGGAUAUGUAGGGCCGCUGCUAGGCAGAAGGGACAUGAGGAUCACCCAUGUACUGACUACUG [Eternabot (L2) Solution 84] (Eterna round: R97, puzzle: Brourd's mod of Exclusion 4)	0.0782	0.0696	–	–
GAGCUAUGAGGAUAUGCAUAUAUACGGUUUCGUGUGGUACUACAUGAGGAUCACCCAUGUAGAAGGCGUGGCAG [Mat - Exclusion 2 - Mod of JL - D78] (puzzle: Exclusion 2)	–	–	0.0167	–
GUGCCGCGAGGAUAUACAGACGGGUCCAAAACGUGUCUCGGACUUGAGGAUCACCCAAGUAGAAGGCUUUUCAG [salish99_ex2_r4_621] (Eterna round: R97, puzzle: Exclusion 2)	0.0283	0.0243	–	–
GCCCGUGGGCAAGGAUAUCCUACGCUGUUCUGGUUCGUGUCUGUCACAUGAGGAUCACCCAUGUGGGAGAAGGUGCACUAGGGU [Design 53] (Eterna round: R96, puzzle: Exclusion NG 2)	0.0197	0.0169	–	apparent KD of MS2 coat protein [1]: 0.0111 µM
UUUUAACAUGAGGAUCACCCAUGUGAGGAUAUCGAAAUUUAUAUUUAUAUUAAUUUUUCGAGAAGGCACAUUUU [JMF 89] (puzzle: Exclusion 1)	–	–	0.177	–
GGGCCCGGAGGAUAUACAUGAGGAUCACCCAUGUAGCGCGCGCGUAUUUGUGUGUGUUGUAGAAGGCCGGGCCC [-36.6, -33.8 kcal, A 19%, 6-0] (Eterna round: R97, puzzle: Exclusion 3)	0.0579	0.0179	–	–
GAGUUAGCGUGAGGAAUAUACAUGAGGAUCACCCAUGUUGGCUAAUAUAUUGCUCGUCUUAUAACAACAAUUAACUG [Mod-hoo-honey#a] (Eterna round: R97, puzzle: Sensor, turn-off variant 1)	0.016	0.0164	–	–
GAGAGAAUCUAGGAUAUGUCAAGAGAAGGAGAGAUAGAAGGAGAGACAUGAGGAUCACCCAUGUCUUCGUGUAG [Default title] (Eterna round: R97, puzzle: Exclusion 6)	0.0194	0.0178	–	–
AUUGAUAUUGAGGAUAUGCUUUUAUUUGUUCUUGCAGAAGGCGAUACAUGAGGAUCACCCAUGUUUAUGGAAGU [JR_E6_Sub089] (puzzle: Exclusion 6)	–	–	0.0389	–
GCACUCUGCUGGCAGUCGGCUUGUCUUAGAAGGAUAGAUACAUGAGGAUCACCCAUGUUUCGGGUGUCAAUUCUAGC [JR_Sensorv2_tov2_Sub1308] (Eterna round: R96, puzzle: Sensor v2, turn-off variant 2)	0.0439	0.0426	–	apparent KD of MS2 coat protein [1]: 0.0345 µM
AAUUCACAUGAGGAUCACCCAUGUCAGGAUAUGGUUACGCGGGUUUCGGUGCGUGUGGCCAGAAGGGACAGCUA (puzzle: Exclusion 1)	–	–	0.0546	–
GAGAAGGUAGGAUAUACGAAUAAAAAGGGUAGAAUAAUAACACAUGAGGAUCACCCAUGUAGAAGGACCAAGAG [Mat - Exclusion 2 - Mod of my Tesla design - D20] (puzzle: Exclusion 2)	–	–	0.0251	apparent KD of MS2 coat protein [3]: 0.045 µM; apparent KD of MS2 coat protein [4]: 0.0265 µM
